B1: HDV Ribozyme (parent)
chain: GGCCGGCAUGGUCCCAGCCUCCUCGCUGGCGCCGGCUGGGCAACAUUCCGAGGGGACCGUCCCCUCGGUAAUGGCGAAUGGGACCCA

Variants of: B1
Test: self-cleavage, relative activity (ratio to wild type); higher = more cleavage; co-transcriptional
Variant C22U G76C has a self-cleavage of 0.763. Work on C22U U37C yielded a self-cleavage of 0.415. For U23A A43G, the self-cleavage was 0.516. Variant C22A G40U has a self-cleavage of 0.0978. With C22A G40A the self-cleavage was 0.367. Work on C22U C84G yielded a self-cleavage of 0.291. For C22A U47G, the self-cleavage was 0.232. C22A U72C gave a self-cleavage of 0. Variant C22U A51G has a self-cleavage of 0.721. U23A C26A showed a self-cleavage of 1.23. In the case of U23A C26U, the self-cleavage is reported as 1.08. For U23A G52A, the self-cleavage was 1.02. Work on C22G A87G yielded a self-cleavage of 0.106. For C22G A51U, the self-cleavage was 0.0339. U23A G76U gave a self-cleavage of 0.941. With C22U C58A the self-cleavage was 0.914. Variant C22U C58U has a self-cleavage of 0.684. U23A C58A gave a self-cleavage of 1.12. With U23A A87C the self-cleavage was 1. In the case of U23A A87G, the self-cleavage is reported as 0.816. U23A A87U showed a self-cleavage of 0.99. For C22U G67U, the self-cleavage was 0.548. Variant C22U G82C has a self-cleavage of 0.198. For C22G G25A, the self-cleavage was 0.0396. C22G G68A showed a self-cleavage of 0.132. Work on U23A A78G yielded a self-cleavage of 0.697. With U23A A51U the self-cleavage was 0.923. For U23A C49U, the self-cleavage was 1.13. In the case of U23A G50U, the self-cleavage is reported as 0.964. With C22A U65A the self-cleavage was 0.237. U23A gave a self-cleavage of 0.985. In the case of U23A G54C, the self-cleavage is reported as 1.15. U23A G54A gave a self-cleavage of 1.01. Work on C22G C49G yielded a self-cleavage of 0.0277. In the case of C22U C44G, the self-cleavage is reported as 0.095. For C22G G59A, the self-cleavage was 0.124. In the case of C22A G67C, the self-cleavage is reported as 0.337. Work on C22U C49U yielded a self-cleavage of 0.45. Work on C22U C49A yielded a self-cleavage of 0.665. C22U C49G gave a self-cleavage of 0.684. C22U G40U showed a self-cleavage of 0.394. Variant C22U G40C has a self-cleavage of 0.166. C22U G40A showed a self-cleavage of 0.643. Variant C22A G53A has a self-cleavage of 0.222. In the case of C22A G53C, the self-cleavage is reported as 0.157. In the case of U23A C36G, the self-cleavage is reported as 0.17. In the case of U23A G25U, the self-cleavage is reported as 0.104. Work on U23A C48A yielded a self-cleavage of 0.88. C22U G68A showed a self-cleavage of 0.631. With C22G U65G the self-cleavage was 0.155. In the case of C22G U65A, the self-cleavage is reported as 0.0504. For U23A G59A, the self-cleavage was 1.12. Variant U23A G59U has a self-cleavage of 1.09. U23A G59C gave a self-cleavage of 0.811. C22U G52U showed a self-cleavage of 0.795. C22G G35C showed a self-cleavage of 0.0978. For C22U C63U, the self-cleavage was 0.76. C22G A83G showed a self-cleavage of 0.126. In the case of C22G G29A, the self-cleavage is reported as 0.0886. With C22G G29C the self-cleavage was 0.0536. With U23A C75A the self-cleavage was 0.277. Variant U23A C75G has a self-cleavage of 0.116. With C22G C84U the self-cleavage was 0.0563. With C22G A45U the self-cleavage was 0.0415. Variant U23A G35C has a self-cleavage of 0.212. U23A G35U showed a self-cleavage of 0.431. In the case of C22U G38U, the self-cleavage is reported as 0.149. For C22A G38A, the self-cleavage was 0.0608. C22A G38U showed a self-cleavage of 0.554. For C22U C57A, the self-cleavage was 0.846. For C22G A78U, the self-cleavage was 0.0396. Work on C22G C48A yielded a self-cleavage of 0.141. With C22G U72C the self-cleavage was 0. In the case of C22U C33G, the self-cleavage is reported as 0.163. With C22A U23C the self-cleavage was 0.0978. Variant C22A U23G has a self-cleavage of 0. With C22G A71U the self-cleavage was 0.0923. In the case of C22U C86U, the self-cleavage is reported as 0.674. In the case of C22G G38U, the self-cleavage is reported as 0.117. Work on C22G G80A yielded a self-cleavage of 0.135. Variant C22U G34U has a self-cleavage of 0.145. With U23A C41G the self-cleavage was 0.849. With C22U G28U the self-cleavage was 0.148. With U23A G28A the self-cleavage was 0. For U23A G28C, the self-cleavage was 0.142. Work on U23A C32G yielded a self-cleavage of 0.253. With U23A C32U the self-cleavage was 0.929. U23A G39U gave a self-cleavage of 0.696. Variant C22G G76A has a self-cleavage of 0.0354. With C22A U46G the self-cleavage was 0.172. Work on C22G U23A yielded a self-cleavage of 0.0941. Work on C22G U23G yielded a self-cleavage of 0. For C22U C64G, the self-cleavage was 0.751. Variant U23A A56G has a self-cleavage of 1.02. For C22U G74U, the self-cleavage was 0.0683. C22U G73A showed a self-cleavage of 0.192. With C22U C24A the self-cleavage was 0.302. Work on C22U C24U yielded a self-cleavage of 0.22. C22G G39U gave a self-cleavage of 0.102. Work on C22A G55U yielded a self-cleavage of 0.353. For C22A G68A, the self-cleavage was 0.298. C22U C85A showed a self-cleavage of 0.59. With C22G G31A the self-cleavage was 0.121. In the case of C22U A77U, the self-cleavage is reported as 0.233. Work on C22G U27A yielded a self-cleavage of 0.208. C22G U27G showed a self-cleavage of 0.0978. Variant C22U C48U has a self-cleavage of 0.727. With C22U A45G the self-cleavage was 0.656. With C22A G59C the self-cleavage was 0.361. C22G C85G gave a self-cleavage of 0.0396. For C22U G81A, the self-cleavage was 0.0911. Variant U23A A70C has a self-cleavage of 1.01. Variant C22G C41G has a self-cleavage of 0.0831. C22G G81A showed a self-cleavage of 0.0528. For C22U G50A, the self-cleavage was 0.745. For C22G A77C, the self-cleavage was 0.0426. Work on C22G G67U yielded a self-cleavage of 0.0519. With C22U G53U the self-cleavage was 0.61. Variant C22U G53A has a self-cleavage of 0.821. C22U U72C showed a self-cleavage of 0.193. In the case of C22U U47G, the self-cleavage is reported as 0.58. C22U G80U gave a self-cleavage of 0.11. Variant C22U G80A has a self-cleavage of 0.113. In the case of C22U G80C, the self-cleavage is reported as 0.0712. For U23A G80C, the self-cleavage was 0.101. Variant C22A U60G has a self-cleavage of 0.177. Variant C22A G81C has a self-cleavage of 0.128. In the case of U23A C84A, the self-cleavage is reported as 0.944. For U23A A42U, the self-cleavage was 0.57. For C22U A70C, the self-cleavage was 0.656. With U23A G40A the self-cleavage was 1.14. Variant C22U A42U has a self-cleavage of 0.138. With C22U A42C the self-cleavage was 0.122. C22G G50C showed a self-cleavage of 0. For C22G G50A, the self-cleavage was 0.0504. For C22G C66U, the self-cleavage was 0.0308. For C22A G34U, the self-cleavage was 0.0536. In the case of C22G G53U, the self-cleavage is reported as 0.0563. In the case of C22G C63A, the self-cleavage is reported as 0.166. For C22G C63G, the self-cleavage was 0. Work on C22U A43G yielded a self-cleavage of 0.116. U23A A45C showed a self-cleavage of 0.344. For C22G A42U, the self-cleavage was 0.0639. C22G G54U gave a self-cleavage of 0.0841. C22G G52U showed a self-cleavage of 0.0314. C22G G52A gave a self-cleavage of 0.112. Variant C22U C32U has a self-cleavage of 0.65. C22A G50A showed a self-cleavage of 0.235. C22G G40C showed a self-cleavage of 0.0665. Variant C22G G40A has a self-cleavage of 0. U23A G74C gave a self-cleavage of 0.323. In the case of C22U G29A, the self-cleavage is reported as 0.249. With C22U G29U the self-cleavage was 0.101. For C22U U23C, the self-cleavage was 0.68. C22U G55C showed a self-cleavage of 0.642. With C22G U60C the self-cleavage was 0.0332. In the case of C22A U69C, the self-cleavage is reported as 0.393. C22A U69G showed a self-cleavage of 0.394. For C22A U79G, the self-cleavage was 0.0573. C22G G55C showed a self-cleavage of 0.109. With C22G U79A the self-cleavage was 0.0615. Work on U23A C33A yielded a self-cleavage of 0.237. Variant U23A C33U has a self-cleavage of 1.05. In the case of C22G C33G, the self-cleavage is reported as 0. Variant C22G C33A has a self-cleavage of 0. Variant C22G C33U has a self-cleavage of 0.0268. Work on U23A C62U yielded a self-cleavage of 0.966.
